{
  "source": "patent US20240164355",
  "key": {"[1]": {"biological_target": "ISG15-AMC, P05161", "sequence (P05161 2-157)": "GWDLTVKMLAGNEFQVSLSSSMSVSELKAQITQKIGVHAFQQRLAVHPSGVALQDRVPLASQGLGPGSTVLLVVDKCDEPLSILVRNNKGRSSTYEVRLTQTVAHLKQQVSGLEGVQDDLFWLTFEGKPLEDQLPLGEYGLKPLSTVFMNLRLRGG"}, "[2]": {"biological_target": "Nedd8-AMC, Q15843", "sequence (Q15843 whole entry, looked up)": "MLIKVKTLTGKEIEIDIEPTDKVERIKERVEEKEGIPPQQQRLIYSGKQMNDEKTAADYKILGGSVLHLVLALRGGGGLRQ"}, "[3]": {"biological_target": "SUMO2-AMC, P61956", "sequence (P61956 1-93)": "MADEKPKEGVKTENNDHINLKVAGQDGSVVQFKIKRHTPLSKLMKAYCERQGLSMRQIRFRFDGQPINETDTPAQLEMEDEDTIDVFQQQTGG"}, "[4]": {"biological_target": "Ubiquitin-AMC (Ub-AMC), P0CG48", "sequence (P0CG48 whole entry, looked up)": "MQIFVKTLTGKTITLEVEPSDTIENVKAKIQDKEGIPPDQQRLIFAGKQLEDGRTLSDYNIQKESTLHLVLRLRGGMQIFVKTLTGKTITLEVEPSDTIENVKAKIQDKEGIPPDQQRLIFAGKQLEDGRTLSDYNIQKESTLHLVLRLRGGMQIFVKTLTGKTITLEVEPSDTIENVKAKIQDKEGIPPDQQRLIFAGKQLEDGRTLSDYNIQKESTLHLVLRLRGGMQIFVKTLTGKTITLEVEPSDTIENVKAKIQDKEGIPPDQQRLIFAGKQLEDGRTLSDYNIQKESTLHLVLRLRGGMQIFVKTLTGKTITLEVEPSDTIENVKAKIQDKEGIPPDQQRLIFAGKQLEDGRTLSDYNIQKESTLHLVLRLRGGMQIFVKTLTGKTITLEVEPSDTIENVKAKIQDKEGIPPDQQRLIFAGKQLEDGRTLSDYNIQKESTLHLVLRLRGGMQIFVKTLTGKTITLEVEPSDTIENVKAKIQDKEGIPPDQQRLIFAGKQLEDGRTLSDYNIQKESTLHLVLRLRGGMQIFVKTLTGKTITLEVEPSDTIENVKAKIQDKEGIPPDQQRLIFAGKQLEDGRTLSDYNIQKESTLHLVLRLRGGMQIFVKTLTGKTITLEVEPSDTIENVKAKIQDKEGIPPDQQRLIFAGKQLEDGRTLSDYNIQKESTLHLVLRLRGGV"}, "[5]": {"biological_target": "SUMO1-AMC, P63165", "sequence (P63165 2-97)": "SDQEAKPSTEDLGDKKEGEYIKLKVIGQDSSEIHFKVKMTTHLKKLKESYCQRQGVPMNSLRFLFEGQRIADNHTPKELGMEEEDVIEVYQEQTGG"}, "[6]": {"biological_target": "all forms of lysine-linked (isopeptide-linked) diubiquitin"}},
  "data": [
    {"protein": "CidB(762-1143) (protein) SSRPGGLVGPESVIDENPPEGLLSDQTRENFRRFYEEKAPGQNSIFLLDIGDNLHVPFSYLQGTRAQVIETLKSRIRGGGTPTAQGILQQINAILRRNNAREIEDVHDLLALDFATDNQNYRYWLQTHDMFFAARQYTFLDNQSHSTNDHYGFEITSVGVDGNQNDPTGRGLLSSHITNFKQKVDSGEKDRLIAIINVGNRHWVTLVIVHQNGNYYGYYADSLGPDSGIDNNIRGALRECDINDDNVHNISVHQQTDGHNCGIWVYENARDINQAIDQALQGNNNFGEKGEGIIGYIRGLLSAGIGNDTRQPRRNEQYFEDRRRDISQLLQNDPNLPSRRSDLIQAHPGIQHEIDPLLLQFLGLQYPQRGGGGALQLGGERV", "values": [
      {"measurement": "UBL-AMC hydrolysis (AMC release)", "setting": "[1]", "value": "Despite testing human ISG15-AMC and SUMO1/2-AMC with several concentrations of CidB (up to 400 nM), we failed to detect any AMC release"},
      {"measurement": "kcat/KM for Nedd8-AMC", "setting": "[2]", "value": "its kcat/KM for Nedd8-AMC was determined to be 0.69 µM^-1 min^-1"},
      {"measurement": "UBL-AMC hydrolysis (AMC release)", "setting": "[3]", "value": "Despite testing human ISG15-AMC and SUMO1/2-AMC with several concentrations of CidB (up to 400 nM), we failed to detect any AMC release"},
      {"measurement": "catalytic efficiency for Ub-AMC relative to Nedd8-AMC", "setting": "[4]", "value": "CidB^wPip catalytic efficiency for hydrolyzing Ub-AMC is 11-fold greater than for Nedd8-AMC"},
      {"measurement": "kcat/KM for Ub-AMC hydrolysis", "setting": "[4]", "value": "the kcat/KM for Ub-AMC hydrolysis was 7.59 µM^-1 min^-1"},
      {"measurement": "UBL-AMC hydrolysis (AMC release)", "setting": "[5]", "value": "Despite testing human ISG15-AMC and SUMO1/2-AMC with several concentrations of CidB (up to 400 nM), we failed to detect any AMC release"}
    ]},
    {"protein": "CidB^wMel (797-1128) (protein) QNSIFLLDIDDNLHVPFSYLQGTRAQAIETLRSRIRGGGTSTAQGILQQINTILRRNNAREIEDVHNLLALDFATENQNFRYWLQTHDMFFAARQYTFHDDRSNPTNDRHDFAITSVGVDGNQNDPTGRDLLSSNIDNFKQKVDSGEKDRLTAIINVGNRHWVTLVIVHQNGNYYGYYADSLGPDSRIDNNIRGALRECDISDDNVHDVSVHQQTDGHNCGIWAYENARDINQAIDQALQGNSNFGEKGEGIIGYIRGLLSAGIGNDTRQPQRNEQYFRNRRRNISQLFQNDSLSSPRGRLIQGRPGIQHEIDPLLLQFLELQYPQRGGGGA", "values": [
      {"measurement": "Nedd8-AMC hydrolysis (AMC release)", "setting": "[2]", "value": "both CidB and CidB^wMel cleaved Ub-AMC, and to a much lesser extent, the UBL Nedd8-AMC"},
      {"measurement": "Ub-AMC hydrolysis (AMC release)", "setting": "[4]", "value": "both CidB and CidB^wMel cleaved Ub-AMC, and to a much lesser extent, the UBL Nedd8-AMC"}
    ]},
    {"protein": "CidB (CidB^wPip), full length (protein) MSNGDGLIRSLVDGDLEGFRQGFESFLDQCPSFLYHVSAGRFLPVFFFSMFSTAHDANILNANERVYFRFDNHGVNPRNGENRNTANLKVAVYRDGQQVVRCYSISDRPNSDGLRFSTRERNALVQEIRRQNPNLREEDLNFEQYKVCMHGKGKSQGEAIATVFEVIREKDRQGRDKFAKYSASEVHFLRQLFRNHRLTIKEIEGRQLNQNQLRQLGRSVNFTRVEPGQQRIDNFMEMLASNQRQDVRDSLRGDILEYVTDTYNNYRAQIENNIEGRSQKFESHGFLLGFLANFSHRYTIGVDLDLSPRNSHVAFLVRHQVERENIPIVINLATRAPPYIALNRARSHAERLHVFSFIPIHTESRNTVCVGLNFNLNLDPFSVDTVGLQQDRFPLVQRLFECLENEGIRENIRDFLLHHLPAEIPRNAENYDRIFDCITGFAFGNSAFDRHPLELEEEDEAPITKYIFRHGDEGLRCLTMVFHAEGSDIVILHIRAHDAQQQGAINLQTLNVNGNDVHVWEVSCTLNNQLELDIDLPNDLGLYHDYQNNNANNFLAGDLVQVPNTENVHNTLNQVVNDGWKNIAQHRGLFQEISGALMPLVDTINVNSEDKFRSILHGTFYASDNPYKVLAMYKVGQTYSLKRGQEEEGERVILTRITEQRLDLLLLRQPRENDLDTHPIGYVLRLANNAEEVGQQQNDARQEIGRLKKQHRGFIPITSGNEVVLFPIVFNRDAHEAGNLILFPEGIGREEHVHRLDRHVRSSRPGGLVGPESVIDENPPEGLLSDQTRENFRRFYEEKAPGQNSIFLLDIGDNLHVPFSYLQGTRAQVIETLKSRIRGGGTPTAQGILQQINAILRRNNAREIEDVHDLLALDFATDNQNYRYWLQTHDMFFAARQYTFLDNQSHSTNDHYGFEITSVGVDGNQNDPTGRGLLSSHITNFKQKVDSGEKDRLIAIINVGNRHWVTLVIVHQNGNYYGYYADSLGPDSGIDNNIRGALRECDINDDNVHNISVHQQTDGHNCGIWVYENARDINQAIDQALQGNNNFGEKGEGIIGYIRGLLSAGIGNDTRQPRRNEQYFEDRRRDISQLLQNDPNLPSRRSDLIQAHPGIQHEIDPLLLQFLGLQYPQRGGGGALQLGGERVISIDFGNPQSALDKIDGVSRVYNHSNSRGSR", "values": [
      {"measurement": "diubiquitin cleavage (panel digest)", "setting": "[6]", "value": "Full length CidB cleaves all forms of lysine-linked (isopeptide-linked) diubiquitin, albeit with variable efficiency"}
    ]}
  ]
}
